{"source": "patent US20170173105A1", "about": "“AUTOASSEMBLING PEPTIDES FOR THE TREATMENT OF PULMONARY LEAKAGE” (3-D MATRIX, LTD., priority 2014, published 2017)", "key": {"[1]": {"assay": "Rheological measurements of RADA16 mixed with salts (stiffness, reversibility, gelation kinetics)", "assay_type": "physicochemical", "details": "for gelation kinetics by ion: 0.5% RADA16; for storage modulus: (RADA)4 about 0.5 w/v percent", "description": "In a rheological comparison of 2.5% RADA16 and 2.5% RADA16+NaCl, KCl, and CaCl2, solutions of 0.5% RADA16 mixed with 0.005, 0.05, 0.125, 0.25, 0.5, and 1 M NaCl, KCl, and CaCl2 were prepared. The anion, chloride (Cl—), was kept the same to observe the effect of the cations, sodium (Na+), potassium (K+), and calcium (Ca2+). FIG. 21 provides a basic understanding of how varying the cations of a salt solution effects the viscoelastic properties and the stiffness of self-assembling peptides. […] This should be because Ca has […] higher ionic strength than Na and K at the same molar concentrations. Therefore, influence of salts on the peptide solution is more related to their ionic strength rather than their molar concentration, as shown in FIGS. 17-18 and Table 2a-c. In some embodiments, there is a correlation between the properties of the peptide solutions with salts based on the concentration of the salts.\nRheological measurements of stiffness of 2.5% RADA16 and 2.5% RADA16+0.25 M CaCl2 was evaluated.\nRheological measurements of reversibility of 0.5% RADA16 solution with +0.125, 0.25, and 0.5 M CaCl2 were evaluated. Solutions of 0.5% RADA16 mixed with 0.125, 0.25, and 0.5 M CaCl2 were prepared. The structure of the self-assembled peptide solution were disrupted thoroughly by application of mechanical stress through vortexing and sonication. The mixtures were placed at room temperature for 48 hours to allow self-assembly to take place. […] FIG. 23a presents raw rheological data of the control peptide solution with salts and the perturbed peptide solutions with salts while FIG. 23b provides a comparison of stiffness of the control peptide solutions and the perturbed peptide solutions.\nRheological measurements of gelation kinetics of 0.5% RADA16+NaCl, KCl, and CaCl2 were evaluated. A solution of 0.5% RADA16 was prepared and gelation kinetics were observed by treatment with several cations (e.g. Na, […], K) and anions (e.g. Cl, CO3, PO4, SO4). It was determined how long it will take for the peptide mixtures to gel and how to control that gelation time by varying the cation/anion type and concentration. […] In vivo and in vitro qualitative experiments and the resulting observations were supportive of these conclusions.\nDue to the success of topically added solution of NaCl gently massaged into 2.5% RADA16 increasing the burst pressure of 2.5% RADA16, other salt based solutions were completely mixed with RADA16 and their mechanical properties were measured. […] The results can be seen in FIG. 29 with respect to the storage modulus (i.e. mechanical strength) of 0.5% PuraMatrix (RADA16) mixed with NaCl, KCl, or CaCl2 at varying concentrations."}, "[2]": {"assay": "Rheological measurements of RADA16 mixed with salts (stiffness, reversibility, gelation kinetics)", "assay_type": "physicochemical", "details": "(RADA)4 about 2.5 w/v percent; calcium chloride about 0.125 M"}}, "data": [{"substance": "Arg-Ala-Asp-Ala-Arg-Ala-Asp-Ala-Arg-Ala-Asp-Ala-Arg-Ala-Asp-Ala [PuraMatrix ®]", "values": [{"measurement": "mechanical properties (storage modulus) with calcium chloride compared with sodium chloride or potassium chloride", "setting": "[1]; 0.5% PuraMatrix (RADA16) mixed with salts at varying concentrations", "result": "greater mechanical properties"}, {"measurement": "gelation kinetics by ion", "setting": "[1]; treatment with chlorine", "result": "quickest gelation"}, {"measurement": "gelation kinetics by ion", "setting": "[1]; treatment with sulfate", "result": "slowest gelation"}, {"measurement": "reversibility after perturbation", "setting": "[1]; 0.5% RADA16 with CaCl2 within the optimal salt concentration range, vortexing and sonication, 48 hours room temperature", "result": "remained reversible"}, {"measurement": "stiffness with added CaCl2 compared with peptide alone", "setting": "[1]; 2.5% RADA16 vs 2.5% RADA16 with CaCl2 (0.25 M / 0.125 M printed)", "result": "noticeable increase in stiffness"}, {"measurement": "storage modulus", "setting": "[1]; calcium chloride about 0.125 M", "result": "about 25 Pa"}, {"measurement": "storage modulus", "setting": "[1]; calcium chloride about 0.250 M", "result": "about 44 Pa"}, {"measurement": "storage modulus", "setting": "[1]; calcium chloride about 0.500 M", "result": "about 52 Pa"}, {"measurement": "enhancement of stiffness by cations", "setting": "[1]; RADA16 mixed with NaCl, KCl, CaCl2 at the same molar concentrations (0.005-1 M)", "result": "Ca provided the best enhancement of stiffness"}, {"measurement": "storage modulus", "setting": "[2]", "result": "about 600 Pa"}]}]}
